Data as given in patent publication US20230121197A1, “ANTIBODIES SPECIFICALLY BINDING THE CARBOXYMETHYLATED CATALYTIC SUBUNIT OF PROTEIN PHOSPHATASE 2A” (Medizinische Universität Wien, priority 2020, published 2023).

Target: T1, PP6c peptides L305, meL305 (Homo sapiens, UniProt O00743)
T1 construct: carboxymethylated versus non-methylated PP2Ac, PP4c and PP6c C-terminal undecapeptides
Experiment: ELISA with PP6c C-terminal undecapeptides
Format: binding
Experimental: To further characterize the carboxymethyl-PP2Ac specificity of monoclonal antibody 7C10-C5 ELISAs were performed on carboxymethylated versus non-methylated PP2Ac, PP4c and PP6c C-terminal undecapeptides.
Specifically, flat-bottom Nunc-Immuno Medisorp 96-well ELISA plates (Thermo; 467320) were coated o/n at 4° C. with 50 μl of either a peptide of the sequence ac-HVTRRTPDYFL-OH (L309) (SEQ ID NO:18) at a concentration of 2 μg/ml in TBS (137 mM NaCl (AppliChem, #131659, 2.7 mM KCl (AppliChem, #131494), 24.8 mM Tris (AppliChem, #A1086), pH 7.4 with HCl), a peptide of the sequence ac-HVTRRTPDYFL-CH3 (meL309) (SEQ ID NO:18) 2 μg/ml in TBS, with a peptide of the sequence (ac-PSKKPVADYFL (L307) (SEQ ID NO:20) at a concentration of 2 μg/ml in TBS or with a peptide of the sequence ac-PSKKPVADYFL-CH3 (meL307) (SEQ ID NO:20) at a concentration of 2 μg/ml in TBS, with a peptide of the sequence ac-IPPRTTTPYFL (L305) (SEQ ID NO:22) at a concentration of 2 μg/ml in TBS or with a peptide of the sequence ac-IPPRTTTPYFL-CH3 (meL305) (SEQ ID NO:22) at a concentration of 2 μg/ml in TBS. […] Bound antibodies were detected colorimetrically by addition of 50 μl of 33 μg/ml […] (TMB) (Sigma, T2885) in 0.1 M sodium acetate pH 6.0 and 0.01% H2O2 (Sigma, H1009). […] The results from 560 nm read were subtracted from the 450 nm read.

B1: 7C10-C5: α-carboxymethylation specific mouse monoclonal IgG1 antibody from single clone hybridoma 7C10-C5 (DSM ACC3350) (antibody)
heavy: MYRMQLLSCIALSLALVTNSDVQLQESGPGLVKPSQSLSLTCSVTGYSITSGYYWNWIRQFPGNKLEWMGYISYDGSNNYNPSLKNRISITRDTSKNQFFLKLNSVTTEDTATYYCAGRFAYWGQGTLVTVSAAKTTAPSVYPLAPVCGDTTGSSVTLGCLVKGYFPEPVTLTWNSGSLSSGVHTFPAVLQSDLYTLSSSVTVTSSTWPSQSITCNVAHPASSTKVDKKIEPRGPTIKPCPPCKCPAPNLLGGPSVFIFPPKIKDVLMISLSPIVTCVVVDVSEDDPDVQISWFVNNVEVHTAQTQTHREDYNSTLRVVSALPIQHQDWMSGKEFKCKVNNKDLPAPIERTISKPKGSVRAPQVYVLPPPEEEMTKKQVTLTCMVTDFMPEDIYVEWTNNGKTELNYKNTEPVLDSDGSYFMYSKLRVEKKNWVERNSYSCSVVHEGLHNHHTTKSFSRTPGK
light: MDMRVPAQLLGLLLLWLSGARCDVLMTQTPLSLPVSLGDQASISCRSSQSIVHSNGNTYLEWYLQKPGQSPKLLIYKVSNRFSGVPDRFSGSGSGTDFTLKINRVEAEDLGVYYCFQGSHVPWTFGGGTKLEIKADAAPTVSIFPPSSEQLTSGGASVVCFLNNFYPKDINVKWKIDGSERQNGVLNSWTDQDSKDSTYSMSSTLTLTKDEYERHNSYTCEATHKTSTSPIVKSFNRNEC
modifications: Amino acid sequence of the recombinant 7C10-C5 heavy chain; Amino acid sequence of the recombinant 7C10-C5 light chain
Question: For B1, which “carboxymethylated versus non-carboxymethylated PP6c peptide signal” value is on record?
Answer: The value was “No significant difference”.
